Changes are numbered by the printed parent chain.
Tests used:
[1] = target: T1, human acid-sensing ion channel 1a variant hASIC1a-D212 (human) (UniProt P78348)
T1 sequence: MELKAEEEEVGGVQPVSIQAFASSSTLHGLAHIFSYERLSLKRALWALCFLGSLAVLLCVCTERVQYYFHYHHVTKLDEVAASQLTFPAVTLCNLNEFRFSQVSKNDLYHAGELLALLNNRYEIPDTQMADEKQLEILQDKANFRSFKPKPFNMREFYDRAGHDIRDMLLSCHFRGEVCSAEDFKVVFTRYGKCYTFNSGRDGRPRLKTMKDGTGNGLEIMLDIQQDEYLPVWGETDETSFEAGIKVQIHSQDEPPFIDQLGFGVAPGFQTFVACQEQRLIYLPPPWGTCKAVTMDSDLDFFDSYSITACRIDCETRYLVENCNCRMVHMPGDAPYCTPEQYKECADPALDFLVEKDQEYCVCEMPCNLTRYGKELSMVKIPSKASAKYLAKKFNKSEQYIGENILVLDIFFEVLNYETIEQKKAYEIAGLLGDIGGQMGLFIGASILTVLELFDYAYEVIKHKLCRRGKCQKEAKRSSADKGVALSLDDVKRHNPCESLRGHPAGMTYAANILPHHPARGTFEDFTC

[2] = target: T2, human acid-sensing ion channel 1a wild type hASIC1a-G212 (human) (UniProt P78348)
T2 sequence: T1 sequence with D212G

[3] = target: human ASIC2a (human) (UniProt Q16515)
UniProt Q16515, sequence (Q16515 whole entry): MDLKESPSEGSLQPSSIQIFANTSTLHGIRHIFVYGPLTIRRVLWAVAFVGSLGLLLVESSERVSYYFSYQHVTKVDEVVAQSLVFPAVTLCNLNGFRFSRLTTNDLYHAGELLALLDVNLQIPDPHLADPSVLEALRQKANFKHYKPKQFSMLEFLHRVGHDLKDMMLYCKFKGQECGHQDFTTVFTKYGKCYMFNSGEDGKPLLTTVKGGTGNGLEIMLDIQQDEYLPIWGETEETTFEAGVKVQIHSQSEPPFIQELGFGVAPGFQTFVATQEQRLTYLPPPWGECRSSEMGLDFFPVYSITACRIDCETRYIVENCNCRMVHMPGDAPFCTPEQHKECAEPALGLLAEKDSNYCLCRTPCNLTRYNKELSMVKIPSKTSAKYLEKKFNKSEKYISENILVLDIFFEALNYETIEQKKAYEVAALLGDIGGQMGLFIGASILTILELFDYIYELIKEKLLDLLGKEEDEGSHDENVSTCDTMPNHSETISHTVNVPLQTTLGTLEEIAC

## Psalmotoxin1 (from UniProt P60514 1-40) (peptide)
[1]
  IC50 of inhibition of the pH5.0-induced current, whole-cell patch-clamp of CHO cells; PcTx1 pre-applied 60 s in the conditioning pH 7.4 solution: 1.19 nM
[2]
  IC50 of inhibition of the pH5.0-induced current, whole-cell patch-clamp of CHO cells; PcTx1 pre-applied 60 s in the conditioning pH 7.4 solution: 1.83 nM

B1: human acid-sensing ion channel 1a variant hASIC1a-D212 (receptor)
chain: T1 sequence
[3]
  IpH5.8/IpH4.0 current ratio of co-transfected CHO cells, whole-cell patch-clamp: 0.43

B2: human acid-sensing ion channel 1a wild type hASIC1a-G212 (receptor)
chain: T1 sequence with D212G
[3]
  IpH5.8/IpH4.0 current ratio of co-transfected CHO cells, whole-cell patch-clamp: 0.41

B3: Mambalgin1 (peptide)
chain: LKCYQHGKVVTCHRDMKFCYHNTGMPFRNLKLILQGCSSSCSETENNKCCSTDRCNK
[1]
  IC50 of inhibition of the pH5.0-induced current, whole-cell patch-clamp of CHO cells; Mambalgin1 pre-applied 60 s in the conditioning pH 7.4 solution: 21.7 nM
[2]
  IC50 of inhibition of the pH5.0-induced current, whole-cell patch-clamp of CHO cells; Mambalgin1 pre-applied 60 s in the conditioning pH 7.4 solution: 10.5 nM

From paper PMC6542941
